Results from paper PMC8101287.

Target: human LAG‐3 on JRT LAG‐3^+ C8 cells (human) (UniProt P18627)
Experiment: flow cytometry on cells

Chain of human LAG‐3 on JRT LAG‐3^+ C8 cells (human) (P18627 23-525): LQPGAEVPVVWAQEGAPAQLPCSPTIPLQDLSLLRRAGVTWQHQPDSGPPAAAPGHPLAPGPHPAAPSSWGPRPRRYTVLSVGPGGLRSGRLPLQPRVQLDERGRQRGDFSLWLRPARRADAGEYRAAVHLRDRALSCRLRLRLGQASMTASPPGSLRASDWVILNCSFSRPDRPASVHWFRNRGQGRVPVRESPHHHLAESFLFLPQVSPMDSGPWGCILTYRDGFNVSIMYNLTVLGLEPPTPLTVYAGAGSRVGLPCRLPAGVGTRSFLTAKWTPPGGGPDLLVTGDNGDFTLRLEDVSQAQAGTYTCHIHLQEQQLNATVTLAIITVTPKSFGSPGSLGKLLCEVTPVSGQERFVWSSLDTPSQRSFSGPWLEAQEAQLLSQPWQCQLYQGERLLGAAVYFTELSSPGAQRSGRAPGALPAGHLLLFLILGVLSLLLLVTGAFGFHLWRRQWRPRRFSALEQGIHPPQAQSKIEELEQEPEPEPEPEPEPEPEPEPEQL

PE labeled pHLA‐DR1 dextramers loaded with HA_(306‐318) peptide (peptide-MHC)
percent of cells with detectable multimer staining: 19%
